US6600012 (BIOMIRA, dated 2003)

B1: TSAPDTR, MUC-1 synthetic 7 mer (peptide)
peptide: TSAPDTR
notes: also called 7 mer TSA . . . peptide
B2: SIINFEKL, 8-mer ovalbumin (OVA) peptide (peptide)
peptide: SIINFEKL
notes: It is the positive control for HLA.A2 upregulation and the negative control for killing
B3: PDTRPAPGS, MUC-1 tandem repeat synthetic 9 mer (peptide)
peptide: PDTRPAPGS
B4: VTSAPDTRP, MUC-1 tandem repeat synthetic 9 mer (peptide)
peptide: VTSAPDTRP
B5: TSAPDTRPA, MUC-1 tandem repeat synthetic 9 mer (peptide)
peptide: TSAPDTRPA
notes: also called TSA 9 mer; 9 mers TSA . .
B6: DTRPAPGST, MUC-1 tandem repeat synthetic 9 mer (peptide)
peptide: DTRPAPGST
B7: GVTSAPDTR, MUC-1 tandem repeat synthetic 9 mer (peptide)
peptide: GVTSAPDTR
B8: APDTRPAPG, MUC-1 tandem repeat synthetic 9 mer (peptide)
peptide: APDTRPAPG

Target: T1, HLA.A2 on T2 mutant cells
T1 construct: MHC class I molecule on the T2 cell surface; also called HLA.A2.1; class I on T2 cells
Assay: T2 cell HLA.A2 upregulation assay, flow cytometry

Binder	binding result
B1	no binding (tested: 50 µM/well)
B2	binds

Target: T1, HLA.A2 on T2 mutant cells
Assay: T2 cell HLA.A2 upregulation assay, flow cytometry with MA2.1

Binder	% Change in mean channel intensity [%]
B3	3
B4	29
B5	256
B6	52
B7	12
B8	66
